The record followed here is the nanobody polyreactivity screen of Harvey et al. (2022).

The data set in a line: yeast display, Sf9 membrane polyspecificity reagent, FACS + sequencing; frameworks hold sequencing errors. The gist of the method:
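Nanobodies came from a synthetic yeast display library in Saccharomyces cerevisiae BJ5465, induced with galactose for 36–48 hours and stained for 1 hour at 4 °C with 10% biotinylated, detergent-solubilized Sf9 membrane reagent. Cells were enriched on streptavidin microbeads and then FACS-sorted, with low and high (top ~1%) gates set on anti-HA fluorescence for expression and streptavidin fluorescence for reagent binding. Each polyreactivity label reflects the gate a clone came from. Genes were amplified by colony PCR, sequenced by MiSeq 2 × 250 and filtered by CDR length.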
In the case of “QVQLVESGGGLVQAGGSLRLSCAASGSTFRRYAMGWYRQAPGKERELVAGITSGGDTYYADSVKGRFTISRDNAKNTVYLQMNSLKPEDTALYYCARVRYGRMDYWGQGTQVTVSS”, the “polyreactivity (PSR sort gate)” value is given as “high polyreactivity”.
Turning to “QVQLVESGGGLVQAGGSLRLSCAASGSTFRRYAMGWYRQAPGKERELVASISRSGGSTYYADSVKGRFTISRDNAKNTVYLQMNSLKPEDTAVYYCAKKPYKSAYDYSSAYDYWGQGTQVTVSS”, the “polyreactivity (PSR sort gate)” value is recorded as “high polyreactivity”.
Turning to “QVQLVESGGGLVQAGGSLRLSCAASGSTFRRYAMGWYRQAPGKERELVASITYRGGSTYYADSVKGRFTISRDNAKNTVYLQMNSLKPEDTAVYYCAKKGVYGPLNEYWGQGTQVTVSS”, the “polyreactivity (PSR sort gate)” value is given as “high polyreactivity”.
To “QVQLVESGGGLVQAGGSLRLSCAASGSTFRRYAMGWYRQAPVKERELVAAITRGGITYYADSVKGRFTISRDNAKNTVYLQMNSLKPEDTAVYYCAATTFGPYALYPRYYYWGQGTQVTVSS” belongs “high polyreactivity”; to “QVQLVESGGGLVQAGGSLRLSCAASGSTFRSNAMGWYRQAPGKERELVAAIRYSGARTYYADSVKGRFTISRDNAKNTVYLQMNSLKPEDTAVYYCAATLYTRTYSWMDYWGQGTQVTVSS”, “high polyreactivity”; to “QVQLVESGGGLVQAGGSLRLSCAASGSTFRSNVMGWYRQAPGKAREFVAAITSSSATTYYADSVKGRFTISRDNAKNTVYLQMNSLKPEDTAVYYCAAGGRKAGPAGGQYYYWGQGTQVTVSS”, “low polyreactivity”.
For the sequence “QVQLVESGGGLVQAGGSLRLSCAASGSTFRSYAMGWYRPAPGTERELVAAISYSGDSTYYADSVTGRFTISRDIAKNTVFLQMKRLKPVDTAVYYCAALRDWDIQGEPWKRYGYWGQGTQVTVSS”, the “polyreactivity (PSR sort gate)” value is on record as “low polyreactivity”.
With “QVQLVESGGGLVQAGGSLRLSCAASGSTFRSYAMGWYRQAPGKERELVAAITSGANTNYADSVKGRFTISRDNAKNTVDLQMNSLKPEDTAVYYCAKASYIIFRIEYRSGYDYWGQGTQVTVSS” the entry was “low polyreactivity”; with “QVQLVESGGGLVQAGGSLRLSCAASGSTFRSYAMGWYRQAPGKERELVAAITWRGGSTDYADSVKGRFTISRDNAKNTVYLQMNSLKPEDTAVYYCAAAIWGDYGAYDYWGQGTQVTVSS”, “low polyreactivity”.
Turning to “QVQLVESGGGLVQAGGSLRLSCAASGSTFRTNGMGWYRQAPGKERELVAAITRGTSTNYADSVKGRFTISRDNAKNTVYLQMNSLKPEDTAVYYCAADVTGGRKYDYWGQGTQVTVSS”, the “polyreactivity (PSR sort gate)” value is “low polyreactivity”.
For “QVQLVESGGGLVQAGGSLRLSCAASGSTFRTYAKGWYRQAPGKERELVASITRRGGRTYYADSVKGRFTISRDNAKNTVYLQMYSLKPEDTAVYYCAAADQQYDYWGQGTQVTVTS”, the “polyreactivity (PSR sort gate)” value is “high polyreactivity”.
Turning to “QVQLVESGGGLVQAGGSLRLSCAASGSTFRTYAMGWYRQAPGKERELVAAISVSGGRTYYADSVKGRFTISRDNAKKTVYLQMNSLKPEDTAVYYCAARQYRYELEYWGQGTQVTVSS”, the “polyreactivity (PSR sort gate)” value is recorded as “low polyreactivity”.
With “QVQLVESGGGLVQAGGSLRLSCAASGSTFRTYAMGWYRQAPGKERELVATITRTGGSTYYADSVKGRFTISRDNAKNTVYLQMNSLKPEDTAVYYCAARRSHQYRGPHFNYWGQGTLVTVSS” the entry was “low polyreactivity”.
Consider “QVQLVESGGGLVQAGGSLRLSCAASGSTFRTYAMGWYRQAPGKERELVAVISASGGSTYYADSVKGRFTISRDNAKNTVYLQMNSLKPEDTAVYYCAVAYSRGRYYYWGQGTQVTVSS”, for which the “polyreactivity (PSR sort gate)” value is “high polyreactivity”.
For the sequence “QVQLVESGGGLVQAGGSLRLSCAASGSTFRTYAMVWYRQAPGKERELVAAIRSRGGSTYYADSVKGRFTISRDNAKNTVYLQMNSLKPEDTAVYYCNAVPRWSYVDEDSWGQGTQVTVSS”, the “polyreactivity (PSR sort gate)” value was “high polyreactivity”.
With “QVQLVESGGGLVQAGGSLRLSCAASGSTFRVYAMGWYRQAPGKERELVAAISWSGGRTYYADSVKGRFTISRDNAKNTVYLQMNSLKPEDTAVYYCAKPGYLRPSRYDYWGQGTQVTVSS”, the “polyreactivity (PSR sort gate)” value is recorded as “high polyreactivity”.
Take “QVQLVESGGGLVQAGGSLRLSCAASGSTFRVYAMGWYRQAPGKERELVAAITRIGGRTYYADSVKGRFTISRDNAKNTVYLQMNSLKPEDTAVYYCAARYPGGYSSGYNYWGQGTQVTVSS”: the “polyreactivity (PSR sort gate)” value was “high polyreactivity”.
With “QVQLVESGGGLVQAGGSLRLSCAASGSTFRVYAMGWYRQAPGKERELVANISWGGGRTYYADSVKGRFTISRDNAKNTVYLQMNSLKPEDTAVYYCAADIAWYTHYHRIFDYWGQGTQVTVSS”, the “polyreactivity (PSR sort gate)” value is on record as “low polyreactivity”.
For the sequence “QVQLVESGGGLVQAGGSLRLSCAASGSTFRWNAMGWYTPAPGKERELVAAITSSGSTYYADSVKGRFTISRDNAKNTVYLQMNSLNPEDTAVYSCAGRANGYWNTYELDYWGQGIQVTVSS”, the “polyreactivity (PSR sort gate)” value is given as “low polyreactivity”.
“QVQLVESGGGLVQAGGSLRLSCAASGSTFRWYAMGWYRQAPGKERELVAAIRSSGGSTYYADSVKGRFTISRDNAKNTVYLQMNSLKPEDTAVYYCNTYPARNFYSVAGGYWGQGTQVTVSS”: the “polyreactivity (PSR sort gate)” value is “low polyreactivity”.
Regarding “QVQLVESGGGLVQAGGSLRLSCAASGSTFRWYAMGWYRQAPGKERELVAAISARGTSTYYADSVKGRFTISRDNAKNTVYLQMNSLKPEDTAVYYCAATRTYQLYRWAPRYYYWGQGTQVTVSS”, the “polyreactivity (PSR sort gate)” value is given as “high polyreactivity”.
For “QVQLVESGGGLVQAGGSLRLSCAASGSTFRWYAMGWYRQAPGKERELVAAITWSGGRTYYADSVKGRFTISRDNAKNTVYLQMNSLKPEDTAVYYCAADRGPEHWYDYYYWGQGTQVTVSS”, the “polyreactivity (PSR sort gate)” value was “high polyreactivity”.
“QVQLVESGGGLVQAGGSLRLSCAASGSTFRYNAMGWYRQAPGKEREFVAAITTSGVRTYYADSVKGRFTISRDNAKNTVYLQMTSLKPEDSAVYYCAARANYIFYGMDYWGQGTLVTVSS”: the “polyreactivity (PSR sort gate)” value is recorded as “high polyreactivity”.
Take “QVQLVESGGGLVQAGGSLRLSCAASGSTFRYNAMGWYRQAPGKERELVAAISKSGGSTYYADSVKGRFTISRDNAKNTVYLQMNSLKPEDTAVYYCAAKAYINNYDYWGQGTQVTVSS”: the “polyreactivity (PSR sort gate)” value was “high polyreactivity”.
“QVQLVESGGGLVQAGGSLRLSCAASGSTFRYNAMGWYRQAPGKERELVAAISKSGGSTYYADSVKGRFTISRDNAKNTVYLQMNSLKPEDTAVYYCATSYPYRIYRSSYDYWGQGTQVTVSS”: the “polyreactivity (PSR sort gate)” value is on record as “high polyreactivity”.
In the case of “QVQLVESGGGLVQAGGSLRLSCAASGSTFRYNAMGWYRQAPGKVRELVASITWSGGDTYYADSVKGRFTISRDNAKNTVYLQMNSLKPEDTAVYYCNKRVHYIAGRGYDYWGQGNQVTVSS”, the “polyreactivity (PSR sort gate)” value is given as “low polyreactivity”.
On to “QVQLVESGGGLVQAGGSLRLSCAASGSTFRYNAMGWYRQPPGKERELVAAISSGGSTNYADSVKGRFTISRDNAKNTVYLQMNSLKPEDTAVYYCAATRPRIPVYQNNYGYWGQGTQVTVSS”, for which the “polyreactivity (PSR sort gate)” value is listed as “high polyreactivity”.
With “QVQLVESGGGLVQAGGSLRLSCAASGSTFRYSAMGWDRQAPGKEREFVAAISWSGSSTYYADSVKGRFTISRDNAKNTVYLQMNILKPEDTAGYYCAARYRYRSSSYDYWGQGTQVTVSS”, the “polyreactivity (PSR sort gate)” value is recorded as “high polyreactivity”.
In the case of “QVQLVESGGGLVQAGGSLRLSCAASGSTFRYYAMGWYRQAPGKERELVAAISGSGGRTYYADSVKGRFTISRDNAKNTVYLQMNSLKPEDTAVYYCAAQCGYYDSAYGSWGQGTQVTVSS”, the “polyreactivity (PSR sort gate)” value is on record as “high polyreactivity”.
To “QVQLVESGGGLVQAGGSLRLSCAASGSTFRYYAMGWYRQAPGKERELVAAISRSGGRTYYADSVKGRFTISRDNAKNTVYLQMNSLKPEDTAVSYCATRGDGSSWGDHDYWGQGTQVTVSS” belongs “high polyreactivity”; to “QVQLVESGGGLVQAGGSLRLSCAASGSTFRYYAMGWYRQAPGKERELVAAISWSGGSTYYADSVKGRFTISRDNAKNTVYLQMNSLKPEDTAVYYCNKAWFPYYYYRFDYWGQGTQVTVSS”, “high polyreactivity”; to “QVQLVESGGGLVQAGGSLRLSCAASGSTFRYYAMGWYRQAPGKERELVAAITQSGGITYYADSVKGRFTISRDNAKNTVYLQMNSLKPEDTAVYYCAKRYYVDYDYWGQGTHVTVSS”, “low polyreactivity”.
On to “QVQLVESGGGLVQAGGSLRLSCAASGSTFRYYAMGWYRQAPGKERELVAAITQSGGITYYADSVKGRFTISRDNAKNTVYLQMNSLKPEDTAVYYCAKRYYVDYDYWGQGTQVTVSS”, for which the “polyreactivity (PSR sort gate)” value is reported as “low polyreactivity”.
As to “QVQLVESGGGLVQAGGSLRLSCAASGSTFRYYAMGWYRQAPGKERELVAAITQSGGITYYADSVKGRFTISRDNANNTVYLQMNSLKPEDTAVYFCAKRYYVDYDYWGQGTQVTVSS”, the “polyreactivity (PSR sort gate)” value is listed as “low polyreactivity”.
Turning to “QVQLVESGGGLVQAGGSLRLSCAASGSTFRYYAMGWYRQAPGKERELVAAITSGGSTNYADSVKGRFTISRDNAKNTVYLQMNSLKPEDTAVYYCAAGRRLRHRYNQGGPDYGYWGQGSQVTVSS”, the “polyreactivity (PSR sort gate)” value is listed as “low polyreactivity”.
As for “QVQLVESGGGLVQAGGSLRLSCAASGSTFRYYAMGWYRQAPGKERELVAAITSGGSTNYADSVKGRFTISRDNAKNTVYLQMNSLKPEDTAVYYCAAGRRLRHRYNQGGPDYGYWGQGTQVTVSS”, the “polyreactivity (PSR sort gate)” value is recorded as “low polyreactivity”.
With “QVQLVESGGGLVQAGGSLRLSCAASGSTFRYYAMGWYRQAPGKERELVAAITSSGGRTYYADSVKGRFTISRDNAKNTVYLQMNSLKPEDTAVYYCAAYAYYHTGDDYWGQGTQVTVSS”, the “polyreactivity (PSR sort gate)” value is recorded as “high polyreactivity”.
“QVQLVESGGGLVQAGGSLRLSCAASGSTFRYYAMGWYRQAPGKERELVATISSGGSTNYADSVKGRFTISRDNAKNTVYLQMNSLKPEDTAVYYCAAAYPQFWYWDYNYWGQGTQVTVSS”: the “polyreactivity (PSR sort gate)” value is recorded as “high polyreactivity”.
Regarding “QVQLVESGGGLVQAGGSLRLSCAASGSTFRYYAMGWYRQAPGKERELVAVISTSGNTYYADSVKGRFTISRDNAKNTVYFQMNSLKPEDTAVYYCAARGVGGQISQEYDYWGQGTQVTVSS”, the “polyreactivity (PSR sort gate)” value is reported as “low polyreactivity”.
Regarding “QVQLVESGGGLVQAGGSLRLSCAASGSTFRYYDRGWYRQAPGKERELVAAITTSGDDTYYADSVKRRFTISRDNAKTTVYLQMNSLKPEDTAVYYCAADGYGGHKYELESWGQGTQVTVSS”, the “polyreactivity (PSR sort gate)” value is “low polyreactivity”.
To “QVQLVESGGGLVQAGGSLRLSCAASGSTFRYYGMGWYRQAPGKERELVAAISNGDSTNYADSVKGRFTISRDNAKNTVYLQMNSLKPEDTAVYYCATERYSYRVYGGITTFEYWGQGSQVTVSS” belongs “high polyreactivity”.
